To fix the notation:
B1: GST-tagged mouse ZO-1(PDZ1) (residues 18–110) [mouse] / His6-tagged thioredoxin (Trx) fusion protein of mouse CLD-3 C-terminus (Trx-CLD3, residues 210–219) [mouse] (parent)
chain 1: IWEQHTVTLHRAPGFGFGIAISGGRDNPHFQSGETSIVISDVLKGGPAEGQLQENDRVAMVNGVSMDNVEHAFAVQQLRKSGKNAKITIRRKK
chain 2: GTAYDRKDYV

This assay covers variants of B1. Briefly: SPR. The settings on record: with His6-tagged thioredoxin (Trx) fusion protein of mouse CLD-3 C-terminus (Trx-CLD3, residues 210–219) [mouse], read off a plot.
Where [1] appears, read: absence of phytic acid (gray bar), parent: 1.2e+03.
Where [2] appears, read: presence of 10 mM phytic acid (InsP6) (black bar), parent: 530.

In the case of chain 1 IWEQHTVTLHRAPGFGFGIAISGGRDNPHFQSGETSIVISDVLKGGPAEGQLQENDRVAMVNGVSMDNVEHAFAVQQLRKSGANAKITIRRKK [chain 1 K83A], the response is 1300 RU under setting [1] and 480 RU under setting [2].

For chain 1 IWEQHTVTLHAAPGFGFGIAISGGRDNPHFQSGETSIVISDVLKGGPAEGQLQENDRVAMVNGVSMDNVEHAFAVQQLRKSGKNAKITIRRKK [chain 1 R11A], the response was found to be 340 RU under setting [1] and 78 RU under setting [2].

Take chain 1 IWEQHTVTLHRAPGFGFGIAISGGRDNPHFQSGETSIVISDVLKGGPAEGQLQENDRVAMVNGVSMDNVEHAFAVQQLRASGKNAKITIRRKK [chain 1 K80A]: the response amounted to 1400 RU under setting [1] and 460 RU under setting [2].
